Results taken from the supplement of paper PMC9233669.
Variants at the floor of the assay were thinned out.

How the values were obtained:
biotinyl-Val-oxazolone = assay: self-aminoacylation, catalytic enhancement (BVO) (fold over background); higher = more active; k-Seq, kA / k0A0; sequences stand for … in GGGAAUGGAUCCACAUCUACGAAUUC…UUCACUGCAGACUUGACGAAGCUG
Method in brief: (§1)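 Mutagenized RNA pools with a 21-nt variable region (0.43 μM) reacted with each biotinyl-aminoacyl-oxazolone at 2–1250 μM. Reactions ran in 50 μL HEPES/NaCl/KCl/MgCl2/CaCl2 buffer with 5% acetonitrile, pH 6.9–7.0, for 90 minutes at room temperature. Streptavidin-captured RNA was quantified by triplicate qPCR and Illumina sequencing, and per-sequence fraction reacted was fit to a pseudo-first-order model with 1000 bootstraps. Catalytic enhancement is median kA divided by the uncatalyzed rate, the low-activity peak of a bimodal Gaussian fit.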

biotinyl-Phe-oxazolone = assay: self-aminoacylation, catalytic enhancement (BFO) (fold over background); higher = more active; k-Seq, kA / k0A0; sequences stand for … in GGGAAUGGAUCCACAUCUACGAAUUC…UUCACUGCAGACUUGACGAAGCUG
Method in brief: as §1

biotinyl-Met-oxazolone = assay: self-aminoacylation, catalytic enhancement (BMO) (fold over background); higher = more active; k-Seq, kA / k0A0; sequences stand for … in GGGAAUGGAUCCACAUCUACGAAUUC…UUCACUGCAGACUUGACGAAGCUG
Method in brief: as §1

biotinyl-Leu-oxazolone = assay: self-aminoacylation, catalytic enhancement (BLO) (fold over background); higher = more active; k-Seq, kA / k0A0; sequences stand for … in GGGAAUGGAUCCACAUCUACGAAUUC…UUCACUGCAGACUUGACGAAGCUG
Method in brief: as §1

biotinyl-Trp-oxazolone = assay: self-aminoacylation, catalytic enhancement (BWO) (fold over background); higher = more active; k-Seq, kA / k0A0; sequences stand for … in GGGAAUGGAUCCACAUCUACGAAUUC…UUCACUGCAGACUUGACGAAGCUG
Method in brief: as §1

biotinyl-Ile-oxazolone = assay: self-aminoacylation, catalytic enhancement (BIO) (fold over background); higher = more active; k-Seq, kA / k0A0; sequences stand for … in GGGAAUGGAUCCACAUCUACGAAUUC…UUCACUGCAGACUUGACGAAGCUG
Method in brief: as §1

Sequence | self-aminoacylation (biotinyl-Val-oxazolone) | self-aminoacylation (biotinyl-Phe-oxazolone) | self-aminoacylation (biotinyl-Met-oxazolone) | self-aminoacylation (biotinyl-Leu-oxazolone) | self-aminoacylation (biotinyl-Trp-oxazolone) | self-aminoacylation (biotinyl-Ile-oxazolone)
UUUACCCUGGUCAUCGAAUGA [Fam2.1 aminoacylation ribozyme variant] | 1.05 | 1.02 | 1.22 | 1.19 | 1.78 | 1.31
AUUCGCCUAGGUCAUCGGGUG [Fam2.2 aminoacylation ribozyme variant] | 23.1 | 364 | 45.8 | 63.8 | 37.3 | 26.2
CCACGCUUCAAGCAAACGGUC [Fam1B.1 aminoacylation ribozyme variant] | 0.665 | 0.644 | 0.457 | 0.477 | 0.544 | 0.647
AUUACCCUAGUCAUGGAGUGA [Fam2.1 aminoacylation ribozyme variant] | 2.68 | 15.5 | 4.31 | 4.06 | 5.17 | 2.79
AAGGUUGCUAAUAGUCGCGAG [Fam3.1 aminoacylation ribozyme variant] | 1.5 | 2.49 | 1.64 | 0.991 | 1.64 | 1.56
CAACACUUCAAGCUAUCGGUC [Fam1B.1 aminoacylation ribozyme variant] | 1.05 | 0.964 | 1.03 | 0.89 | 1.02 | 1.2
AAGUUAGCUAAUAGUCGCAAG [Fam3.1 aminoacylation ribozyme variant] | 1.49 | 5.25 | 1.6 | 1.52 | 2.21 | 1.78
AUCACCCUUGUCAUCGAGUGA [Fam2.1 aminoacylation ribozyme variant] | 4.91 | 59.7 | 9.48 | 10.1 | 10.7 | 4.65
CUACUUCCAGCAAUCGGUCUG [Fam1A.1 aminoacylation ribozyme variant] | 0.961 | 0.605 | 0.77 | 1.04 | 0.458 | 0.87
AUUUACCUAGGUCAACGGGUG [Fam2.2 aminoacylation ribozyme variant] | 2.26 | 29.2 | 4.05 | 4.95 | 3.56 | 2.56
AUACUCCUAGGUCAUCGGGUG [Fam2.2 aminoacylation ribozyme variant] | 2.98 | 27.5 | 3.69 | 5.38 | 3.91 | 2.97
AUUCCCCUGGGUCAUCGGGUG [Fam2.2 aminoacylation ribozyme variant] | 9.66 | 107 | 12.2 | 16.9 | 13.3 | 8.62
AAGUUUGCCAAUAGUCGAAAG [Fam3.1 aminoacylation ribozyme variant] | 1.02 | 0.727 | 1.44 | 0.911 | 1.5 | 1.05
CUAAUUCAAACAAACGGUCUG [Fam1A.1 aminoacylation ribozyme variant] | 0.917 | 0.687 | 0.616 | 0.561 | 0.543 | 0.823
GUUCACCUAGGUCAUCGGGUA [Fam2.2 aminoacylation ribozyme variant] | 22.6 | 381 | 50.6 | 68.3 | 33.1 | 24.6
ACUCACCUAGGUCAUGGGGUG [Fam2.2 aminoacylation ribozyme variant] | 4 | 24.8 | 3.95 | 4.65 | 4.43 | 3.61
CUACAUCAAACAAUCUGUCUG [Fam1A.1 aminoacylation ribozyme variant] | 0.736 | 0.795 | 0.533 | 0.624 | 0.497 | 0.722
AUUACCCUGGGCCUCGAGUGA [Fam2.1 aminoacylation ribozyme variant] | 2.61 | 22.6 | 3.15 | 3.74 | 4.65 | 2.41
CUACUACAAACAAUCGGGCUG [Fam1A.1 aminoacylation ribozyme variant] | 1.05 | 0.456 | 0.989 | 1.07 | 0.83 | 1.16
CUAGUUCAAACAAUCCGUCUG [Fam1A.1 aminoacylation ribozyme variant] | 0.895 | 0.796 | 0.885 | 0.89 | 0.713 | 0.861
CUACUUCGAACAAUCUGUCUG [Fam1A.1 aminoacylation ribozyme variant] | 0.576 | 0.413 | 0.51 | 0.576 | 0.337 | 0.539
AAGCUUGCUAAAAGUCGCAAG [Fam3.1 aminoacylation ribozyme variant] | 1.79 | 5.12 | 3.31 | 3.1 | 3.43 | 2.16
CCACACAUCAAGCACUCGGUC [Fam1B.1 aminoacylation ribozyme variant] | 1.18 | 0.805 | 1.02 | 0.724 | 0.94 | 0.935
AUUCACCUAGGUCUUCGGGUU [Fam2.2 aminoacylation ribozyme variant] | 2.98 | 13.8 | 3.09 | 3.66 | 2.94 | 2.82
AUUCAUCUAGGUCAUCGGGUA [Fam2.2 aminoacylation ribozyme variant] | 3.46 | 4.63 | 4.18 | 5.18 | 5.53 | 3.09
AUUACCCUGGUCAUGAAGUGA [Fam2.1 aminoacylation ribozyme variant] | 4.08 | 44.8 | 8.83 | 7.74 | 10.1 | 4.14

Sequence | self-aminoacylation (biotinyl-Val-oxazolone) | self-aminoacylation (biotinyl-Phe-oxazolone) | self-aminoacylation (biotinyl-Met-oxazolone) | self-aminoacylation (biotinyl-Leu-oxazolone) | self-aminoacylation (biotinyl-Trp-oxazolone) | self-aminoacylation (biotinyl-Ile-oxazolone)
CGACACAUCAAGCAAUCGGUC [Fam1B.1 aminoacylation ribozyme variant] | 1.13 | 1.47 | 0.811 | 1.09 | 0.828 | 1.01
AUUACCCUGGUCAACGAGUGA [Fam2.1 aminoacylation ribozyme variant] | 3.6 | 22.4 | 6.11 | 5.99 | 7.31 | 3.43
AACUUCGCUAAUAGUCGCAAG [Fam3.1 aminoacylation ribozyme variant] | 3.03 | 14.5 | 3.5 | 3.44 | 3.06 | 2.98
AAUUUUGCUAAUACUCGCAAG [Fam3.1 aminoacylation ribozyme variant] | 1.35 | 1.5 | 1.01 | 1.47 | 1.03 | 1.5
AUUACUCUGGUCAUCGAGUGC [Fam2.1 aminoacylation ribozyme variant] | 1.05 | 0.969 | 1.19 | 1.42 | 1.32 | 1.1
AUGUUUGCCAAUAGUCGCAAG [Fam3.1 aminoacylation ribozyme variant] | 1.33 | 1.82 | 1.64 | 1.14 | 1.15 | 1.53
CUAGUUCAAACGAUCGGUCUG [Fam1A.1 aminoacylation ribozyme variant] | 0.794 | 0.559 | 0.812 | 0.844 | 0.58 | 0.782
GUCCUUCAAACAAUCGGUCUG [Fam1A.1 aminoacylation ribozyme variant] | 1.52 | 11.9 | 1.35 | 1.49 | 11 | 1.31
AUUAGCAUGGUCAUCGAGUGA [Fam2.1 aminoacylation ribozyme variant] | 2.64 | 3.31 | 3.11 | 3.39 | 3.81 | 2.87
AUUACGCUGGUAAUCGAGUGA [Fam2.1 aminoacylation ribozyme variant] | 2.77 | 18.7 | 5.48 | 5.76 | 7.02 | 2.84
AUUCACCUGGCUCAUCGGGUG [Fam2.2 aminoacylation ribozyme variant] | 3.81 | 18.3 | 1.79 | 3.2 | 2.44 | 2.18
CCACCCGUCAAGCAAUCGGUC [Fam1B.1 aminoacylation ribozyme variant] | 1.44 | 1.12 | 1.2 | 1.12 | 1.08 | 1.24
CUACUUCAAACCGUCGGUCUG [Fam1A.1 aminoacylation ribozyme variant] | 0.917 | 0.289 | 0.847 | 0.71 | 0.872 | 0.831
AUGUUUGCUAAUCGUCGCAAG [Fam3.1 aminoacylation ribozyme variant] | 1.44 | 1.59 | 1.13 | 1.32 | 1.01 | 1.32
CCAAACUUUAAGCAAUCGGUC [Fam1B.1 aminoacylation ribozyme variant] | 0.993 | 0.824 | 0.869 | 0.846 | 0.664 | 1.11
AUUCACCUAGGUCAUUGAGUG [Fam2.2 aminoacylation ribozyme variant] | 2.3 | 12.3 | 3.53 | 4.17 | 3.89 | 2.6
AUACUUCAAACAAUCGGUGUG [Fam1A.1 aminoacylation ribozyme variant] | 0.94 | 3.81 | 1.22 | 1.25 | 2.68 | 1.05
CCACACUUCAUGCAAUCGGUA [Fam1B.1 aminoacylation ribozyme variant] | 0.733 | 0.533 | 0.769 | 0.811 | 0.458 | 0.681
AGUCAGCUAGGUCAUCGGGUG [Fam2.2 aminoacylation ribozyme variant] | 5.51 | 58.2 | 5.84 | 6.1 | 9.92 | 5.42
AUUACCCUGUUCAUCCAGUGA [Fam2.1 aminoacylation ribozyme variant] | 3.52 | 23 | 5.95 | 5.85 | 8.43 | 3.76
CCACCCUUCAAGCAAUCGGAC [Fam1B.1 aminoacylation ribozyme variant] | 1.31 | 0.866 | 0.991 | 0.712 | 0.664 | 1.04
CUACUUGAAACAAUCGGUCUG [Fam1A.1 aminoacylation ribozyme variant] | 0.779 | 0.652 | 0.788 | 0.707 | 0.631 | 0.766
AUUCGCCUGGGUCAUCGGGUG [Fam2.2 aminoacylation ribozyme variant] | 7.88 | 63.1 | 12.9 | 15.8 | 14.1 | 6
AAGUUUGCUAAUAGCCACAAG [Fam3.1 aminoacylation ribozyme variant] | 0.827 | 1.59 | 0.55 | 0.833 | 0.834 | 0.821
AUUCACCUAGGUCCUCGGGCG [Fam2.2 aminoacylation ribozyme variant] | 2.7 | 35.3 | 4.65 | 4.27 | 3.17 | 3.37
